Common to all, as to assay: fluorescence anisotropy
Details in all cases: 50 mM HEPES-NaOH pH 7.2, 50 mM NaCl (50-250 mM in salt series), 20 or 50 nM DNA, 60 min, 25 C
In general terms: In fluorescence polarisation assays a small probe gives low polarisation when free and higher when bound to something large.

The test system of data set [1] is OBMg R112A (Moorella glycerini).
Data set [2] relates to OBMg R188A (Moorella glycerini).
Data set [3] deals with OBMg R175A (Moorella glycerini).
The test system of data set [4] is OBMg K192A (Moorella glycerini).
In data set [5] the test system is OBMg (ComEC OB fold) WT (Moorella glycerini).
Data set [6] deals with OBMg R115A (Moorella glycerini).
For data set [7], the system named is OBMg R150A (Moorella glycerini).
The test system of data set [8] is OBMg R122A (Moorella glycerini).

As to “GTTCGCAACGAA (double strand) [12 bp dsDNA]”, the binding signal (fold Kd increase vs WT) in data set [1], in data set [2], in data set [3], in data set [4], in data set [6] and in data set [7] was > 2 in each case. For the same sequence, in data set [8], the binding signal (fold Kd increase vs WT) was > 2. Moreover, the dissociation constant (Kd) in data set [5] came to 330 nM.
As for GTTCGCAACGAA [12-mer ssDNA], in data set [5], the Kd is 790 nM.

By Kd is commonly meant a measure of binding affinity in units of concentration.
